Entries after “also recorded” stand apart in the source; their conditions may differ. Where two headings read alike, the source gives them in different places. Where a SMILES comes first, the peptide text is derived from it. [ ]: non-standard residue; d: D form. The star is where a group is joined. Dolaproine = CO[C@@H]([C@@H]1CCCN1)[C@@H](C)C(=O)O; Dil = CC[C@H](C)[C@H](NC)[C@@H](CC(=O)O)OC; X1 = C[C@@H](N*)[C@@H](O)c1ccccc1; NMeV = CN[C@H](C(=O)O)C(C)C
Tests used:
[1] = system: Normal human T cells; test: Complement-dependent cytotoxicity (CDC), Sytox Green; type: cell-based; conditions: 0.02-50 μg/mL, human serum, 2 hours
Experimental: (§1) Complement-Dependent Cytotoxicity (CDC): Normal human T cells (All Cells, Alameda, Calif.) or cancer cell lines (ATCC, Manassas, Va.) were labelledlabeled with 5 μM Sytox Green (Life Technologies, Grand Island, N.Y.), then bound with serial a serial dose titrations of anti-human NTB-A h20F3 antibody or PBD dimer ADCies (0.02-50 μg/mL) in RPMI1640 media+1020% human serum (Complement Technology, Tyler, TX or Solomon Park Research Laboratories, Kirkland, Wash. Cells were incubated at 37° C., 5% CO2 for 2 hours, and fluorescence from lysed cells was measured with an Envision plate reader (Perkin Elmer, Waltham, Mass.). Data was expressed as a percentage of maximum cell lysis determined with a positive control of 1% TritonX-100-treated cells (Sigma, ST. Louis, Mo.).
(§2) Three cell types were used for analysis: normal human T cells, WIL2-S cells, and Raji cells. Expression of relevant receptors on each cell type is found in Table 7 and is indicated as number of receptor per cell.

[2] = system: Normal human T cells; test: ADCC, flow cytometry-based assay with NK effector cells; type: cell-based; conditions: NK effector to target 10:1, 4 hours
Experimental: A flow cytometry-based assay was used to measure ADCC activity on normal human T cells. PKH2-labeled normal human T cell targets were bound with titrations of antibody (0.1 ng/mL-10 μg/mL) and then incubated with effector NK cells at an effector to target ratio of 10:1 for 4 hours at 37° C., 5% CO2. Viability was determined by 7-AAD incorporation as measured on the FACsCalibur flow cytometer (BD BioSciences, San Jose, Calif.).

[3] = system: Normal human T cells; test: ADCP with monocyte-derived macrophages; type: cell-based; conditions: dilution series starting at 2 μg/mL
Experimental: (§3) To assess NTB-A mediated ADCP activity, normal T lymphocytes or tumor cells were labeled with the red fluorescent membrane dye, PKH26, then labeled with antibody or ADC in a 5-point, 10-fold dilution series starting at 2 μg/mL. Cells were then incubated for 30 minutes on ice and washed twice with PBS. Cells were mixed with monocyte-derived macrophages for one hour at 37° C. The cell mixture was then stained with Alexa Fluor 488-conjugated murine anti-CD11b to label macrophages and analyzed by flow cytometry to detect PKH26+CD11b+ double-labeled fluorescent cells. Phagocytic activity was calculated as (percent PKH26+CD11b+)/(percent CD11b+cells) multiplied by one hundred.

[4] = system: resting human B lymphocytes; test: Cytotoxicity on resting human lymphocytes, Cell-Titer Glo, 96 hours; type: cell-based; conditions: for IC50: 96 hours; for ADC concentration with cytotoxic effect on resting B lymphocytes: resting human B lymphocytes, 96 hour cytotoxicity assay
Experimental: (§4) To assess the cytotoxic effects of anti-NTB-A ADCs on resting human T and B lymphocytes, purified cells were seeded into black 96-well assay plates. Cells were then treated with anti-NTB-A ADCs starting at 10 ug/mL titrated down 5-fold for a total of 8 dilution points. For free drug treatment, cells were dosed with either MMAE starting at 1,000 nM or free PBD dimer starting at 100 nM titrated down 5-fold for a total of 8 dilution points. Plates were incubated at 37° C., 5% CO2 for 96 hours then allowed to equilibrate to room temperature. An equal volume of Cell-Titer Glo reagent was added to each well and the plate was incubated an additional 30 minutes at room temperature. Plates were then read on a Perkin Elmer Envision plate reader. Dose effect curves and IC50 values were calculated using GraphPad Prism software.

[5] = system: resting human T lymphocytes; test: as above; type: cell-based
Experimental: as §4

[6] = system: Raji cell line; test: Complement-dependent cytotoxicity (CDC), Sytox Green; type: cell-based; conditions: 0.02-50 μg/mL, human serum, 2 hours
Experimental: as §1, §2

[7] = system: WIL2-S cell line; test: as above; type: cell-based; conditions: 0.02-50 μg/mL, human serum, 2 hours
Experimental: as §1, §2

[8] = system: WIL2-S cell line; test: ADCC, chromium-51 release with NK effector cells; type: cell-based; conditions: NK effector to target 10:1, 4 hours
Experimental: Antibody-Dependent Cellular Cytotoxicity (ADCC) Activity Assay: ADCC cytotoxic activity was measured by chromium-51 release in which effector natural killer (NK) cells kill (lyse) target cells via binding to the antibody or ADC on the target cells. WIL2-S cells were labeled with chromium-51, bound with antibody (0.1 ng/mL-10 μg/mL), and then incubated with NK cells at an effector to target ratio of 10:1 for 4 hours at 37° C., 5% CO2. Supernatant was removed to a filter plate and chromium-51 counts were measured with a TopCount (Perkin Elmer, Waltham, Mass.). Data was expressed as a percentage of maximum specific cell lysis determined with a positive control of 1% TritonX-100-treated cells (Sigma, St. Louis, Mo.).

[9] = system: Raji cell line; test: ADCP with monocyte-derived macrophages; type: cell-based; conditions: dilution series starting at 2 μg/mL
Experimental: as §3

[10] = system: WIL2-S cell line; test: ADCP with monocyte-derived macrophages; type: cell-based; conditions: dilution series starting at 2 μg/mL
Experimental: as §3

[11] = system: cynomolgus-NTB-A; test: Binding to 293-F17 cells overexpressing cynomolgus-NTB-A, flow cytometry; conditions: 293-F17/cynomolgus-NTB-A cells; 20 μg/mL antibody
Experimental: (§5) Dose titrations of the anti-human NTB-A antibodies conjugated to Alexa Fluor 647 (, h20F3_HDLD-AF647) were used to generate saturation binding curves. Antigen positive Ramos cells were plated at 1×10^5 cells per well in a 96 well V-bottom plate (Thermo Scientific, Rochester, N.Y.). Three-fold serial dilutions of 2× concentrated antibodies were prepared in FACs buffer (PBS+2% fetal bovine serum) and were added to the cells in duplicate. The antibody solutions were incubated with cells for 1 hour on ice, protected from light. The cells were washed twice with FACs buffer and analyzed on the LSRII flow cytometer (BD BioSciences, San Jose, Calif.). KD values were determined with GraphPad Prism software (La Jolla, Calif.). Anti-human NTB-A antibodies h20F3_HDLD and chimeric 20F3 were tested for binding to 293-F17 cells overexpressing cynomolgus-NTB-A. 293-F17/cynomolgus-NTB-A cells were plated at 5×10^5 cells/well in FACS buffer (PBS+2% fetal bovine serum+0.02% azide) and incubated with 20 μg/mL antibody for 30 minutes on ice. The cells were washed twice and stained with 30 μg/mL goat anti-human IgG-PE (Jackson ImmunoResearch, West Grove, Pa.) for 30 minutes, on ice and protected from light. Cells were again washed twice with FACs buffer. Stained cells were analyzed on the FACs Calibur flow cytometer (BD BioSciences, San Jose, Calif.).

[12] = molecular target: T1, human NTB-A (Homo sapiens, UniProt Q96DU3); test: Saturation binding (Kd) of AF647-labelled antibody on Ramos cells; conditions: 1 hour on ice
T1 construct: endogenous in cells; host or cells: Ramos cells
T1 sequence (Q96DU3 22-332): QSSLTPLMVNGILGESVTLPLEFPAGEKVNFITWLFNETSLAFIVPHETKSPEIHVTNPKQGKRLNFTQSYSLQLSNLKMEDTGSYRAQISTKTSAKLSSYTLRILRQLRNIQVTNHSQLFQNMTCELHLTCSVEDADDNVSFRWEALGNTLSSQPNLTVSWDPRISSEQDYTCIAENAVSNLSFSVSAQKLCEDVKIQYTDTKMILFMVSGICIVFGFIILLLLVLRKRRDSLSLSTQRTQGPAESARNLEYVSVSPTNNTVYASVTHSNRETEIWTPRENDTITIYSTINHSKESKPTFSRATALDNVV
Experimental: as §5

[13] = Donor 1, B cell, NTB-A receptor # 6,811
[14] = Donor 2, B cell, NTB-A receptor # 11,037
[15] = Donor 3, B cell, NTB-A receptor # 8,771
[16] = Donor 4, T cell, NTB-A receptor # 5,547
[17] = Donor 5, T cell, NTB-A receptor # 7,979
[18] = Donor 6, T cell, NTB-A receptor # 5,522

Chain of cynomolgus-NTB-A (as listed by the source): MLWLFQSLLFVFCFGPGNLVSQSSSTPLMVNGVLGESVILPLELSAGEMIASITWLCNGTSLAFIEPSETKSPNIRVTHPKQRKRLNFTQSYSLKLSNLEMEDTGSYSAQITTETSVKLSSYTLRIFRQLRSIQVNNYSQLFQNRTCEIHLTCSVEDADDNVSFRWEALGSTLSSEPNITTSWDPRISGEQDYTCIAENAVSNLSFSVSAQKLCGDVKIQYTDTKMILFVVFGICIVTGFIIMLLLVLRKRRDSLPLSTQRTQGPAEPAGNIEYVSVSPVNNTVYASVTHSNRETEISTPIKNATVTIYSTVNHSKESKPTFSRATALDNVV

Campath: anti-CD52 antibody control [reference compound]
CDC Maximum % Specific Cell Lysis [1]: 108 ± 5.2% | ADCC Maximum % Specific Cell Lysis [2]: 60 ± 3.5% | ADCP Maximum % Phagocytosis [3]: 57%

CC[C@H](C)[C@@H]([C@@H](CC(=O)N1CCC[C@H]1[C@H](OC)[C@@H](C)C(=O)N[C@H](C)[C@@H](O)c1ccccc1)OC)N(C)C(=O)[C@@H](NC(=O)[C@@H](NC)C(C)C)C(C)C [Free MMAE, monomethyl auristatin E, reference compound] (H-[NMeV]V[Dil][Dolaproine]-X1)
IC50 ([4]; Donor 1, B cell, NTB-A receptor # 6,811, free drug, read-out: IC50): 3 nM | IC50 ([4]; Donor 2, B cell, NTB-A receptor # 11,037, free drug, read-out: IC50): 2 nM | IC50 ([4]; Donor 3, B cell, NTB-A receptor # 8,771, free drug, read-out: IC50): 5 nM | IC50 ([5]; Donor 4, T cell, NTB-A receptor # 5,547, free drug, read-out: IC50): > 1000 nM | IC50 ([5]; Donor 5, T cell, NTB-A receptor # 7,979, free drug, read-out: IC50): > 1000 nM | IC50 ([5]; Donor 6, T cell, NTB-A receptor # 5,522, free drug, read-out: IC50): > 1000 nM

Rituximab: anti-CD20 antibody control [reference compound]
CDC Maximum % Specific Cell Lysis [6]: 45 ± 5.7% | CDC Maximum % Specific Cell Lysis [7]: 66 ± 1.4% | ADCC Maximum % Specific Cell Lysis [8]: 42 ± 6.0% | ADCP Maximum % Phagocytosis [9]: 57% | ADCP Maximum % Phagocytosis [10]: 56%

B1: c20F3-1910(2) (conjugate)
VH: QIQLVQSGPELKKPGETVKISCKASGYTFTNYGMNWVKQAPGKDLKWMGWINTYSGEPRYADDFKGRFAFSLEKSANTAYLQINNLKNEDMATYFCARDYGRWYFDVWGTGTTVTVSS
VL: QIVLSQSPAILSASPGEKVTMTCRASSSVSHMHWYQQKPGSSPKPWIYATSNLASGVPARFSGSGSGTSYSLTISRVEAEDAATYYCQQWSSTPRTFGGGTKLEIKR
IC50 [4, 13]: 1,468 ng/mL | IC50 [4, 14]: 1,270 ng/mL | IC50 [4, 15]: 3,421 ng/mL | ADC concentration with cytotoxic effect on resting B lymphocytes [4]: > 1,000 ng/mL | IC50 [5, 16]: >10,000 ng/mL | IC50 [5, 17]: >10,000 ng/mL | IC50 [5, 18]: >10,000 ng/mL

B2: c20F3-vcMMAE(4): chimeric 20F3 vcMMAE auristatin ADC, drug load 4 (conjugate)
VH: B1 VH
VL: B1 VL
modifications: non-natural residues
IC50 [4, 13]: >10,000 ng/mL | IC50 [4, 14]: >10,000 ng/mL | IC50 [4, 15]: >10,000 ng/mL | ADC concentration with cytotoxic effect on resting B lymphocytes [4]: no cytotoxic effect | IC50 [5, 16]: >10,000 ng/mL | IC50 [5, 17]: >10,000 ng/mL | IC50 [5, 18]: >10,000 ng/mL

B3: chimeric: chimeric form of the 20F3 anti-NTB-A antibody (antibody, V domains shown)
VH: B1 VH
VL: B1 VL
Cyno binding [11]: positive

B4: HDLD: humanized 20F3: HD (SEQ ID NO:8) with LD (SEQ ID NO:18); preferred variant (antibody, V domains shown)
VH: QIQLVQSGSELKKPGASVKVSCKASGYTFTNYGMNWVRQAPGQDLKWMGWINTYSGEPRYADDFKGRFVFSLDKSVNTAYLQISSLKAEDTAVYYCARDYGRWYFDVWGQGTTVTVSS
VL: QIVLSQSPATLSLSPGERATMSCRASSSVSHMHWYQQKPGQAPRPWIYATSNLASGVPARFSGSGSGTDYTLTISSLEPEDFAVYYCQQWSSTPRTFGGGTKVEIKR
modifications: mature heavy chain variable region of humanized 20F3 HD; mature light chain variable region of humanized 20F3 LD
notes: preferred variant
Kd [12]: ~2 nM | Cyno binding [11]: retained binding; also recorded: positive

B5: h20F3wt: humanized 20F3 HDLD antibody with wild-type IgG1 (antibody, V domains shown)
VH: B4 VH
VL: B4 VL
CDC Maximum % Specific Cell Lysis [1]: 1.3 ± 2.8% | CDC Maximum % Specific Cell Lysis [6]: 2.1 ± 0.6% | CDC Maximum % Specific Cell Lysis [7]: 0.0 ± 0.0% | ADCC Maximum % Specific Cell Lysis [2]: 38 ± 0.8% | ADCC Maximum % Specific Cell Lysis [8]: 21 ± 0.6%

Source: patent publication US20230218776A1, “ANTI-NTB-A ANTIBODIES AND RELATED COMPOSITIONS AND METHODS” (SEAGEN INC., priority 2015, published 2023)
